# Entries after “also recorded” stand apart in the source; their conditions may differ.
# B1: DT9: C. trachomatis D protein spot identified as CT610 (lower row) (protein)
# chain: MNFLDQLDLIIQNKHMLEHTFYVKWSKGELTKEQLQAYAKDYYLHIKAFPKYLSAIHSRCDDLEARKLLLDNLMDEENGYPNHIDLWKQFVFALGVTPEELEAHEPSEAAKAKVATFMRWCTGDSLAAGVAALYSYESQIPRIAREKIRGLTEYFGFSNPEDYAYFTEHEEADVRHAREEKALIEMLLKDDADKVLEASQEVTQSLYGFLDSFLDPGTCCSCHQSY
# B2: DT11: C. trachomatis D protein spot identified as CT610 (lower row) (protein)
# chain: B1 chain
# B3: DT7: C. trachomatis D protein spot identified as CT610 (upper row) (protein)
# chain: B1 chain
# B4: DT10: C. trachomatis D protein spot identified as CT610 (lower row) (protein)
# chain: B1 chain
# B5: DT48: C. trachomatis D protein spot, N-terminal fragment of CT858 (protein)
# chain: IHSPVQGESLVCKNALQDLSFLEHLLQVKYAPKTWKEQYLGWDLVQSSVSAQQKLRTQENPSTSFCQQVLADFIGGLNDFHAGVTFFAIESAYLPYTVQKSSDGRFYFVDIMTFSSEIRVGDELLEVDGAPVQDVLATLYGSNHKGTAAEESAALRTLFSRMASLGHKVPSGRTTLKIRRPFGTTREVRVKWRYVPEGVGDLATIAPSIRAPQLQKSM
# B6: DT4: C. trachomatis D protein spot, C-terminal fragment of CT858 (protein)
# chain: GYNIGSTDGFLPVIGPVIWESEGLFRAYISSVTDGDGKSHKVGFLRIPTYSWQDMEDFDPSGPPPWEEFAKIIQVFSSNTEALIIDQTNNPGGSVLYLYALLSMLTDRPLELPKHRMILTQDEVVDALDWLTLLENVDTNVESRLALGDNMEGYTVDLQVAEYLKSFGRQVLNCWSKGDIELSTPIPLFGFEKIHPHPRVQYSKPICVLINEQDFSCADFFPVVLKDNDRALIVGTRTAGAGGFVFNVQFPNRTGIKTCSLTGSLAVREHGAFIENIGVEPHIDLPFTANDIRYKGYSEYLDKVKKLVCQLINNDGTIILAEDGSF
# B7: CT858: C. trachomatis 67 kDa protein, fragments DT4 (C-terminal) and DT48 (N-terminal) (protein)
# chain: MKMNRIWLLLLTFSSAIHSPVQGESLVCKNALQDLSFLEHLLQVKYAPKTWKEQYLGWDLVQSSVSAQQKLRTQENPSTSFCQQVLADFIGGLNDFHAGVTFFAIESAYLPYTVQKSSDGRFYFVDIMTFSSEIRVGDELLEVDGAPVQDVLATLYGSNHKGTAAEESAALRTLFSRMASLGHKVPSGRTTLKIRRPFGTTREVRVKWRYVPEGVGDLATIAPSIRAPQLQKSMRSFFPKKDDAFHRSSSLFYSPMVPHFWAELRNHYATSGLKSGYNIGSTDGFLPVIGPVIWESEGLFRAYISSVTDGDGKSHKVGFLRIPTYSWQDMEDFDPSGPPPWEEFAKIIQVFSSNTEALIIDQTNNPGGSVLYLYALLSMLTDRPLELPKHRMILTQDEVVDALDWLTLLENVDTNVESRLALGDNMEGYTVDLQVAEYLKSFGRQVLNCWSKGDIELSTPIPLFGFEKIHPHPRVQYSKPICVLINEQDFSCADFFPVVLKDNDRALIVGTRTAGAGGFVFNVQFPNRTGIKTCSLTGSLAVREHGAFIENIGVEPHIDLPFTANDIRYKGYSEYLDKVKKLVCQLINNDGTIILAEDGSF
# B8: DT8: novel 7.2 kDa C. trachomatis specific protein, SEQ ID NO:1, not annotated in genome (protein, listed as Chlamydia trachomatis)
# chain: MQHTIMLSLENDNDKLASMMDRVVAASSSILSASKDSESNRQFTISKAPDKEAPCRVSYVAASALSE
# Tested on: host cell proteasome
# Experiment: Pulse chase studies in combination with proteasome inhibitors (2D-PAGE)
# Assay type: cell-based, C. trachomatis D infected cells
# Set-up: key to Affected by MG115 / Affected by MG132: +: turnover times is prolonged by treatment with different proteasome inhibitors during labelling and chase
# Settings: labelled 22-24 h.p.i., chased 24-28 h.p.i. with MG132 (10-100 μM; 20 μM in FIG. 6)
# Method: (§1) To label chlamydial proteins for two hour periods, infected cell cultures were incubated in a medium containing RPMI 1640, […] gentamycin, 40 μg/ml cycloheximide, 100 μCi/ml [35S]-methionine/cysteine (Promix, Amersham Pharmacia Biotech, Uppsala, Sweden) as described previously (Shaw et al., 1999,2000) [18.] [19.]. After labelling the labelling medium was changed to normal growth medium following two washes in normal growth medium and the infected cells were harvested at different points in time after labelling. Similarly, labelled EB proteins were obtained by allowing the Chlamydia to grow until 72 h.p.i. after the two hour labelling periods. The labelled EB were then harvested and purified using two consecutive steps of density gradient ultracentrifugation essentially as described for C. trachomatis in (Schacter and Wyrick, 1994) [22.]and for C. pneumoniae (Knudsen et al. 1999 [17.]). Proteins in the EB preparation and pulse chase preparation were labelled at the same intervals as proteins from the whole cell lysate preparation to facilitate correct 2D-PAGE protein profile comparison.
# Cell permeable proteasome inhibitors are added to the infected cell cultures during the labelling and chase period and the turnover time of proteins compared to that observed for labelling/chase without proteasome inhibitors added. Proteins were labelled in the presence or absence of 10-100 μM of the proteasome inhibitor MG-132 from 22-24 h.p.i. The labelling medium was then replaced with growth medium with or without MG132 after two washes in normal growth medium and chased from 24 h.p.i. to 28 h.p.i. Cell lysates were run on 2D-PAGE(IPG) and compared to controls without MG-132. and to gels with proteins harvested immediately after labelling (FIGS. 6A, B and C).
# The invention includes the use of several other proteasome inhibitors (e.g. MG115, MG262, PSI and lactocystein), which inhibit different parts of the catalytic activity of the proteasome, which may elucidate other proteins that are degraded in the proteasome (Table IV).
row,Molecule,level on chased+MG132 gels compared to controls
1,B1,significantly greater; also recorded: higher; also recorded: significantly increased
2,B2,significantly greater; also recorded: higher; also recorded: significantly increased
3,B3,not significantly affected
4,B4,significantly greater; also recorded: higher; also recorded: significantly increased

# Same assay, conditions: proteasome inhibitors added during the chase period
row,Molecule,turnover time upon addition of proteasome inhibitors
1,B1,prolonged
2,B2,prolonged
3,B4,prolonged

# Same assay, conditions: turnover time of C. trachomatis D protein; inhibitor during labelling and chase
Molecule,Affected by MG115,Affected by MG132
B1,+,+
B2,+,+
B4,+,+

# Tested on: C. trachomatis D infected cell cultures
# Experiment: Pulse chase studies of candidates for secreted proteins (2D-PAGE)
# Assay type: cell-based
# Settings: not given
# Method: as §1
# In order to estimate the time in which the identified candidate proteins could be present inside infected cells, the invention provides a series of pulse chase studies. In the following examples infected cell cultures were [35S]-labelled from 22-24 hours. After the labelling period the medium was changed to normal RPMI growth medium without [35S]-methionine and cells were harvested at different times after labelling.
row,Molecule,turnover time in pulse chase studies
1,B5,long
2,B1,short
3,B2,short
4,B3,short
5,B4,short
6,B6,long
7,B7,long
8,B8,short

# Same assay, conditions: labelled 22-24 h.p.i., chased
row,Molecule,turnover time (time present after synthesis) [h]
1,B8,< 6

# Tested on: host cell proteasome
# Experiment: Immunoblotting with PAb255 against CT610 of MG132 treated infected cells
# Assay type: cell-based, C. trachomatis D infected cells
# Settings: MG132 for 6 hours prior to harvesting at 30 h.p.i.
# Method: In order to confirm that the PAbs recognized the correct vaccine candidates and to visualize potential post translational modifications or processing, 2D-PAGE immunoblotting were performed. 500 μg unlabelled and 2×10^6 cpm labelled C. trachomatis D or C. pneumoniae protein from whole cell lysates was separated by 2D-PAGE, and proteins were electroblotted on to PVDF membranes. Immunostaining was carried out using a 1/5001/1000 dilution of the PAbs in a buffer containing 150 mM NaCl (or in high salt, 400 mM), 20 mM Tris, 0.2% w/v gelatin, 0.05% v/v Tween 20 (Bio-Rad) and 2% v/v normal goat serum (Dako, Glostrup Denmark).
# The secondary antibody used was alkaline phosphatase-conjugated goat anti-rabbit IgG (Bio-Rad) diluted 1/2000 in antibody buffer. Blots were stained with 5-bromo-4-chloro-3-indolylphosphate toluidium (BCIP)/nitroblue tetrazolium (NBT) (Bio-Rad) until a clear reaction was detected. Immunoblots were computer scanned and subsequently exposed to X-ray films for approximately 8 days. Melanie II Software was used in order to compare immunostained proteins with their [35S]-labelled counterparts.
# DT7 was identified as CT610 and was located just above DT9, DT10, DT11 and DT12 (FIG. 6A). IMB with PAb255 against CT610 on 2D-gel blots (FIG. 7C1) of whole cell lysates clearly reacted with two rows of spots, one row representing DT7 and the other row representing DT9, DT10, DT11 and DT12. CT610 is therefore present in different isoforms presumably due to different posttranslational modification and processing.
# IMB with PAb255 was performed on ordinary SDS-PAGE PVDF blots with protein from whole cell lysates treated for six hours in the presence or absence of MG132, respectively.
row,Molecule,abundance on 2D-gel immunoblot with PAb255 after MG132 treatment
1,B1,clear relative increase; also recorded: clearly increased
2,B2,clearly increased
3,B4,clear relative increase; also recorded: clearly increased

# Same assay, conditions: MG132 for 6 hours prior to harvesting at 30 h.p.i.; listed as DT111
row,Molecule,abundance on 2D-gel immunoblot with PAb255 after MG132 treatment
1,B2,clear relative increase

# Same assay, conditions: six hours with or without MG132 (50 μM), harvested 30 h.p.i.
row,Molecule,"level of band on SDS-PAGE immunoblot with PAb255, MG132 treated vs untreated"
1,B3,not significantly altered
